The values that follow come from patent US20070207967.

The data set deals with T1, PPC peptide, soluble recombinant 18-mer ADGACGYGRFSPPCGAAG
T1 chain: ADGACGYGRFSPPCGAAG

B1: aminophenylmercuric acetate (APMA)-activated MMP-2 (protein)
chain: YNFFPRKPKWDKNQITYRIIGYTPDLDPETVDDAFARAFQVWSDVTPLRFSRIHDGEADIMINFGRWEHGDGYPFDGKDGLLAHAFAPGTGVGGDSHFDDDELWTLGEGQVVRVKYGNADGEYCKFPFLFNGKEYNSCTDTGRSDGFLWCSTTYNFEKDGKYGFCPHEALFTMGGNAEGQPCKFPFRFQGTSYDSCTTEGRTDGYRWCGTTEDYDRDKKYGFCPETAMSTVGGNSEGAPCVFPFTFLGNKYESCTSAGRSDGKMWCATTANYDDDRKWGFCPDQGYSLFLVAAHEFGHAMGLEHSQDPGALMAPIYTYTKNFRLSQDDIKGIQELYGASPDIDLGTGPTPTLGPVTPEICKQDIVFDGIAQIRGEIFFFKDRFIWRTVTPRDKPMGPLLVATFWPELPEKIDAVYEAPQEEKAVFFAGNEYWIYSASTLERGYPKPLTSLGLPPDVQRVDAAFNWSKNKKTYIFAGDKFWRYNEVKKKMDPGFPKLIADAWNAIPDNLDAVVDLQGGGHSYFFKGAYYLKLENQSLKSVKFGSIKSDWLGC
Consider B1, for which the “gelatin degradation assay (enzymatic activity, biotinylated gelatin substrate)” value was “PPC inhibited both MMP-9 and MMP-2 activity”.
